Target: BAK (UniProt Q16611)
Experiment: biotinylated BH3 peptide pull-down from lysate
Conditions: reference: wild type, okadaic acid then UV; sites S117

binding against the reference: gained
Substance: BAK (from UniProt Q16611) S117A, okadaic acid then UV
